Molecular target: T1, Rv1272c from Mycobacterium tuberculosis (Mycobacterium tuberculosis (Mtb) H37Rv, UniProt P9WQJ3 1-631)
T1 construct: also called subunit of Rv1273c/72c; not shown: Flag, C-terminal, kept
T1 sequence: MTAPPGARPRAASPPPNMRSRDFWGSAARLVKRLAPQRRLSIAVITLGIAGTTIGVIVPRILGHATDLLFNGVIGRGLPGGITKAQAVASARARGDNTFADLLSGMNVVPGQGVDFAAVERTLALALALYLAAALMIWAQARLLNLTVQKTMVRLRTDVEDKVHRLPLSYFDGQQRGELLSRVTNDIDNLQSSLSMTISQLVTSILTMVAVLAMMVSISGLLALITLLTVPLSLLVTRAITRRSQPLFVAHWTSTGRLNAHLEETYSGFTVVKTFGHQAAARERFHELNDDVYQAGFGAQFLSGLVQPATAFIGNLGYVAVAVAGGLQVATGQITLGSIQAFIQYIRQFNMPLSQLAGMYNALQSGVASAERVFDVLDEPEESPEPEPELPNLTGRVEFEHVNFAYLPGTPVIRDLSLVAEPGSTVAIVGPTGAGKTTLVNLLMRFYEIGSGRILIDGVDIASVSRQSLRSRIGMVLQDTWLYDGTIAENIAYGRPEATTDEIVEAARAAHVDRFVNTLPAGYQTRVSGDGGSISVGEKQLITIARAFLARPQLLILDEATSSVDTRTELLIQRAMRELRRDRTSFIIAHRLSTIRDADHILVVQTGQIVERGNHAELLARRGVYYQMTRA
Assay: SEC
Conditions: both partners purified

B1: Rv1273c from Mycobacterium tuberculosis (natural protein)
chain: MLLALLRQHIRPYRRLVAMLMMLQLVSTLASLYLPTVNAAIVDDGVAKGDTATIVRLGAVMLGVTGLQVLCAIGAVYLGSRTGAGFGRDLRSAMFEHIITFSERETARFGAPTLLTRSTNDVRQILFLVQMTATVLVTAPIMCVGGIIMAIHQEAALTWLLLVSVPILAVANYWIISHMLPLFRRMQSLIDGINRVMRDQLSGVRVVRAFTREGYERDKFAQANTALSNAALSAGNWQALMLPVTTLTINASSVALIWFGGLRIDSGQMQVGSLIAFLSYFAQILMAVLMATMTLAVLPRASVCAERITEVLSTPAALGNPDNPKFPTDGVTGVVRLAGATFTYPGADCPVLQDISLTARPGTTTAIVGSTGSGKSTLVSLICRLYDVTAGAVLVDGIDVREYHTERLWSAIGLVPQRSYLFSGTVADNLRYGGGPDQVVTEQEMWEALRVAAADGFVQTDGLQTRVAQGGVNFSGGQRQRLAIARAVIRRPAIYVFDDAFSALDVHTDAKVHASLRQVSGDATIIVVTQRISNAAQADQVIVVDNGKIVGTGTHETLLADCPTYAEFAASQSLSATVGGVG
notes: also called subunit of Rv1273c/72c
For B1, the “stoichiometry N” value was 1.
